The source of these data is patent US20240010720A1 (IOMX THERAPEUTICS, published 2024).

Numbering of substitutions follows the chain as printed.

Assay [1] addresses T1, His-tagged extracellular domain (ECD) of human IGSF11 (VSIG3) (human, UniProt Q5DX21 23-241).
T1 construct: partly bought (SinoBiological 13094-H08H); also called IGSF11-HIS; HIS-IGSF11; not shown: HIS6 tag
T1 sequence: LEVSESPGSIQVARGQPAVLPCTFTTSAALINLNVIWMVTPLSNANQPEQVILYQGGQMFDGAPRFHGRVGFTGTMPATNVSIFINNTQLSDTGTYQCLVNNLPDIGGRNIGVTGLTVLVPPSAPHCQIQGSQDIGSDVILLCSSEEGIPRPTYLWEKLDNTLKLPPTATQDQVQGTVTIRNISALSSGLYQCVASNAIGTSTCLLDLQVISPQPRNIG
The assay can be described thus: blocking ELISA: antibody pre-incubated with His-tagged IGSF11 ECD, complexes added to immobilised VSIR-Fc; y axis % remaining IGSF11 binding to VSIR, x axis nM IgG per legend. (In general: An ELISA detects its analyte on a solid surface through an enzyme-linked reagent.)

For assay [2], the target named is T2, IGSF11 ECD fused to murine-Fc (human; mouse, UniProt Q5DX21 23-241).
T2 construct: also called Fc-fusion IGSF11 ECD; full-length ECD of IGSF11; not shown: murine Fc
T2 sequence: T1 sequence
Description: ELISA, IgG.

In assay [3] the target is T3, murine IGSF11 on cells (mouse, UniProt P0C673 23-428).
T3 construct: UniProt P0C673; also called MC38-IGSF11 (murine); CT26-IGSF11 (murine)
T3 sequence: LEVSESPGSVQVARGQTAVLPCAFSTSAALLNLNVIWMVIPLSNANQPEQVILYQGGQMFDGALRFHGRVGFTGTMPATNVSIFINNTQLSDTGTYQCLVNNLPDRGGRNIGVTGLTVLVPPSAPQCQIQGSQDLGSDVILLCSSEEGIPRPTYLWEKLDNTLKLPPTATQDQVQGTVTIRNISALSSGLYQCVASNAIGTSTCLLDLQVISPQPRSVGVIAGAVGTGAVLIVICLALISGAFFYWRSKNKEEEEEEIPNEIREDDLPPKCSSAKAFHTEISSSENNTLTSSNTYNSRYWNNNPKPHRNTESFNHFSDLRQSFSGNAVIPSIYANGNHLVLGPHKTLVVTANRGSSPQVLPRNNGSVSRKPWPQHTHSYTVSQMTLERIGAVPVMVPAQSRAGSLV
The assay can be described thus: FACS, CT26-IGSF11 cells, IgG. (Flow cytometry measures light scatter and fluorescence of single cells or particles in a stream.)
Description: (§1) Unbound antibodies were removed by washing the cells three time with FACS buffer. Bound antibodies were detected with a mouse anti-human IgG antibody conjugated with AlexaFluor647.

In assay [4] the target is T3, murine IGSF11 on cells. The assay can be described thus: FACS, MC38-IGSF11 cells, IgG.
Description: as §1
The target of assay [5] is T4, human IGSF11 (VSIG3) on cells (human, UniProt Q5DX21 23-431).
T4 sequence: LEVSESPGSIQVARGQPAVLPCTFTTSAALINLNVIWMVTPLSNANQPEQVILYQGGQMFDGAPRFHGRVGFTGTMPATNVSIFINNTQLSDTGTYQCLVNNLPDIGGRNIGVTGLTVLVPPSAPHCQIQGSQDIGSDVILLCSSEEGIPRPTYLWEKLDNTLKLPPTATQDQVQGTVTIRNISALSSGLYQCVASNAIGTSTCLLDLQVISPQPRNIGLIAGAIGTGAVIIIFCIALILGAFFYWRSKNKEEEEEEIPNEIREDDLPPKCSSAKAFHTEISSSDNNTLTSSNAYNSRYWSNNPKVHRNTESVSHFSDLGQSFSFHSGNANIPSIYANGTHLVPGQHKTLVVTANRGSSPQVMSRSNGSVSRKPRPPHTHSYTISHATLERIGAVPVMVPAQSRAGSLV
Description: FACS, MDA-MB-231-IGSF11 cells, IgG.
Description: as §1

Assay [6] has as its target T5, recombinant human IGSF11 (VSIG3) extracellular domain (ECD) (human, UniProt Q5DX21 23-241, biotinylated where captured on streptavidin).
T5 construct: also called biotinylated recombinant ECD-IGSF11; IGSF11 (ECD domain)
T5 sequence: T1 sequence
The assay can be described thus: ELISA, Fab.

Assay [7] has as its target T6, recombinant murine IGSF11 extracellular domain (ECD) (mouse, UniProt P0C673 23-240, biotinylated).
T6 construct: also called Mouse IGSF11; murine ECD-IGSF11
T6 sequence: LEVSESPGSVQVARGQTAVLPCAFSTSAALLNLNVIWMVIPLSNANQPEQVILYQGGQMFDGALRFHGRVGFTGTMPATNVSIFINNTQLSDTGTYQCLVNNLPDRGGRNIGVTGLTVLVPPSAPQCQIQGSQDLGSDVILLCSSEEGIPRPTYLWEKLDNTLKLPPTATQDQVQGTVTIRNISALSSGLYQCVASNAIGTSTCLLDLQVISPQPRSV
Description: ELISA, Fab.

For assay [8], the target named is T7, recombinant cynomolgus monkey IGSF11 extracellular domain (ECD) (cynomolgus monkey, UniProt Q5DX21 23-241 (human entry), biotinylated).
T7 chain: T1 sequence with P17T, I83V, A185T, S187T
Description: ELISA, Fab.

The next assay addresses T8, Streptavidin (UniProt P22629 37-163, limits assumed).
T8 construct: also called negative antigen; irrelevant antigen
The assay can be described thus: ELISA, Fab.

The target of assay [9] is T5, recombinant human IGSF11 (VSIG3) …. Description: BLI, apparent affinity, IgG captured, IGSF11 ECD 100 nM. Background: In BLI a coated tip is dipped into the sample, and binding shifts an interference pattern.
Description: Briefly, various APBs were loaded on an optical biosensor via a commercially available Capture System (AHC sensors, ForteBio).

T8 sequence (P22629 37-163 limits assumed): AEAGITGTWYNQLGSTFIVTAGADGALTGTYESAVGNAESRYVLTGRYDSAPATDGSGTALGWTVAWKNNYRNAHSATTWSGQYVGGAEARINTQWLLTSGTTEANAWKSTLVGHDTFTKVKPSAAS

B1: B-008 (chain-swapped IgG1) (antibody, V domains shown)
VH: EVQLVESGGGLIQPGGSLRLSCAASGFTVSSNYMSWVRQAPGKGLEWVSVIYSGGSTYYADSVKGRFTISRDNSKNTLYLQMNSLRAEDTAVYYCARGNPYYYGDLQVNFDYWGQGTLVTVSS
VL: QAVVTQEPSLTVSPGGTVTPTCGSSTGAVTSGNLPNWFQQKPGQAPRALIYSTSNKHSWTPARISGSLLGGKAALTLSGVQPEDEAEYYCLLYYGGAWVFGGGTKLTVL
notes: human IgG1 format; also called B8
As for B1, in assay [1], the “IC50 (read off the curve)” value is about 0.004 µM.

B2: C-017 (IgG1 format) (antibody, V domains shown)
VH: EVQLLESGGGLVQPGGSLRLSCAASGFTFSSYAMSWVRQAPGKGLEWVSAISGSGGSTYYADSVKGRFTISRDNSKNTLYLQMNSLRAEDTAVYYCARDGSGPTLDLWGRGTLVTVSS
VL: DIQMTQSPSSLSASVGDRVTITCRASQSISSYLNWYQQKPGKAPKLLIYAASSLQSGVPSRFSGSGSGTDFTLTISSLQPEDFATYYCQQHRYIPPWTFGQGTKVEIK
notes: wildtype human IgG1 and kappa or lambda constant regions
Broadly, the EC50 is the midpoint of the concentration-response curve. As for B2, the EC50 in [2] was 0.001 to 0.02 µM; in the assay with murine IGSF11 on cells [3] it was 0.02 to 0.05 µM; with murine IGSF11 on cells [4], 0.05 to 0.1 µM; in assay [5] it was 0.015 to 0.025 µM.

B3: C-019 (Fab format) (Fab, V domains shown)
VH: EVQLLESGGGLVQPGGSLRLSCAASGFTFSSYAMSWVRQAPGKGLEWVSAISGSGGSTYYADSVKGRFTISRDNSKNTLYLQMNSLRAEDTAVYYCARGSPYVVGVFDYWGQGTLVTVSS
VL: B2 VL with H91W, R92Q, Y93H, I94E, W97Y
notes: Fab in E. coli lysate
On to B3, for which the A450 in assay [6] is under 1; in assay [7] it was under 1; in assay [8], under 1; in the assay with Streptavidin, under 0.1.

B4: C-007 (IgG1 format) (antibody, V domains shown)
VH: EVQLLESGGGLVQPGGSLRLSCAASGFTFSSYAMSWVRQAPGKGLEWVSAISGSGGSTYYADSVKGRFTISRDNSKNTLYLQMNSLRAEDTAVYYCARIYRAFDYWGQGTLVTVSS
VL: ASVLTQPPSVSAAPGQKVTISCSGSSSNIGNNYVSWYQQLPGTAPKLLIYDNNKRPSGIPDRFSGSKSGTSATLGITGLQAEDEADYYCQLYEEEHSTWVFGGGTKLTVL
notes: as for B2
Turning to B4, the EC50 in [2] is under 0.001 µM; with murine IGSF11 on cells [3] it was 0.02 to 0.05 µM; in the assay with murine IGSF11 on cells [4] it was under 0.02 µM; in assay [5] it was under 0.01 µM. Moreover, the Kd in assay [9] was under 0.125 µM.

B5: C-004 (Fab format) (Fab, V domains shown)
VH: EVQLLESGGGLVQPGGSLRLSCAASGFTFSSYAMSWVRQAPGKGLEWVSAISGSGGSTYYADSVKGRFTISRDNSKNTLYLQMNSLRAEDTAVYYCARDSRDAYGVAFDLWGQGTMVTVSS
VL: B4 VL with Q90L, L91T, Y92W, E93T, E94G, E95A, H96G, S97R, T98I, W99F
notes: Fab in E. coli lysate
Regarding B5, the A450 in assay [6] is under 1; in [7], under 1; in assay [8] it was under 1; in the assay with Streptavidin, under 0.1.

B6: C-016 (IgG1 format) (antibody, V domains shown)
VH: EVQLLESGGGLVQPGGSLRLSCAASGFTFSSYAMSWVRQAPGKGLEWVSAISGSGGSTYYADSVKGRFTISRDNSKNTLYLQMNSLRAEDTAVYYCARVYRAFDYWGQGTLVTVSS
VL: B4 VL with Q90H, E93T, E95A, H96E, T98H
notes: as for B2
Consider B6, for which the values for the EC50 with murine IGSF11 on cells [3] and in the assay with murine IGSF11 on cells [4] were 0.02 to 0.05 µM and 0.05 to 0.1 µM, respectively.

B7: C-001 (IgG1 format) (antibody, V domains shown)
VH: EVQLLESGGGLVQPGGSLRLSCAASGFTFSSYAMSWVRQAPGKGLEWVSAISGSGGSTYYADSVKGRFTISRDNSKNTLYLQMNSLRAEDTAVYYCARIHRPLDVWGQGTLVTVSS
VL: B4 VL with Q90G, L91S, Y92W, E93L, H96R, T98Q, W99Y
notes: wildtype human IgG1 and kappa or lambda constant regions; also called ABP C-001
In the case of B7, the EC50 is under 0.001 µM in assay [2], 0.02 to 0.05 µM with murine IGSF11 on cells [3], 0.05 to 0.1 µM with murine IGSF11 on cells [4] and under 0.01 µM in [5]. In addition, the Kd in assay [9] was under 0.075 µM.

B8: C-013 (Fab format) (Fab, V domains shown)
VH: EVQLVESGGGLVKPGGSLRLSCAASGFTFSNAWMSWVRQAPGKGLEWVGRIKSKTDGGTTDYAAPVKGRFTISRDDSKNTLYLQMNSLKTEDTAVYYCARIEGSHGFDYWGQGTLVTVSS
VL: SYELTQPPSVSVSPGQTASITCSGDKLGDKYASWYQQKPGQSPVLVIYQDSKRPSGIPERFSGSNSGNTATLTISGTQAEDEADYYCASYLHTPKQFVFGGGTKLTVL
notes: Fab in E. coli lysate
For B8, the A450 in [6] was under 1; with Streptavidin, under 0.1.

B9: C-005 (IgG1 format) (antibody, V domains shown)
VH: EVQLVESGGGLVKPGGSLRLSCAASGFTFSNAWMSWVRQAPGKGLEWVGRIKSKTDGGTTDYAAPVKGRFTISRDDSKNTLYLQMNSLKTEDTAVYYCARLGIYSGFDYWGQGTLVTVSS
VL: B8 VL with A88H, L91T, H92G, T93K, K95S, F97V
notes: as for B2
Regarding B9, the EC50 in assay [2] was under 0.001 µM; with murine IGSF11 on cells [3], under 0.02 µM; with murine IGSF11 on cells [4], under 0.02 µM; in assay [5], under 0.01 µM. The Kd in [9] was under 0.015 µM.

B10: C-010 (Fab format) (Fab, V domains shown)
VH: QVQLVQSGAEVKKPGSSVKVSCKASGGTFSSYAISWVRQAPGQGLEWMGGIIPIFGTANYAQKFQGRVTITADESTSTAYMELSSLRSEDTAVYYCARGYGEYYPAFDVWGQGTLVTVSS
VL: B8 VL with L91A, P94H, K95S, Q96T, F97W
notes: Fab in E. coli lysate
Consider B10, for which the figures for the A450 (in [7]; in [8]; in the assay with Streptavidin) were under 1, under 1 and under 0.1, respectively.

B11: C-018 (Fab format) (Fab, V domains shown)
VH: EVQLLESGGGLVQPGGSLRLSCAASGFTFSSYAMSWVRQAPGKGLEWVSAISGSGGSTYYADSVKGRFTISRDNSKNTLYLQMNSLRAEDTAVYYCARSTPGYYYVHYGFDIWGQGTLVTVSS
VL: B8 VL with A88Q, S89A, Y90W, L91S, H92T, T93S, P94T, K95H, Q96S, F97W
notes: Fab in E. coli lysate
In the case of B11, the A450 was under 1 in assay [6], under 1 in assay [7], under 1 in [8] and under 0.1 in the assay with Streptavidin.

B12: C-027 (Fab format) (Fab, V domains shown)
VH: QVQLVQSGAEVKKPGSSVKVSCKASGGTFSSYAISWVRQAPGQGLEWMGGIIPIFGTANYAQKFQGRVTITADESTSTAYMELSSLRSEDTAVYYCARENIPSYYDSSGRQDAFDIWGQGTMVTVSS
VL: B8 VL with A88Q, T93K, P94S, K95H, Q96G, F97A
notes: Fab in E. coli lysate
Consider B12, for which the figures for the A450 (in [6]; in assay [8]; with Streptavidin) were under 1, under 1 and under 0.1, respectively.
